The source of these data is patent US20120321619A1 (Bayer, published 2012).

Positions count from the first letter of the chain named.

Test [1] concerns the target T1, recombinant soluble murine C4.4a (mouse, UniProt Q91YK8 33-343, limits assumed).
T1 construct: also called mouse C4.4a; mC4.4a
T1 sequence (looked up): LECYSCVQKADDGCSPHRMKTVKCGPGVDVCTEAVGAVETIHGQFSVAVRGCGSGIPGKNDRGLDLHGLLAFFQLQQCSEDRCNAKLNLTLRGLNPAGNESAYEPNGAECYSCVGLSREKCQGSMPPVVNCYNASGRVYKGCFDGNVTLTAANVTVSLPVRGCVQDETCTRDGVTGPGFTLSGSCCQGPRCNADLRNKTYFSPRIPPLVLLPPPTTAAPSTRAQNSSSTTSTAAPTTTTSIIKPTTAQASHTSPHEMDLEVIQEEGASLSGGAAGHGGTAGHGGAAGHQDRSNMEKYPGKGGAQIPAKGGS
Description: SPR (Biacore T100), IgG1 captured by anti-human Fc, soluble C4.4a injected, 1:1 fit. The method, then: (§1) Binding affinities of anti C4.4 antibodies were determined by surface plasmon resonance analysis on a Biacore T100 instrument (GE Healthcare Biacore, Inc.). Antibodies were immobilized onto a CM5 sensor chip through an indirect capturing reagent, anti-human IgG Fc. Reagents from the “Human Antibody Capture Kit” (BR-1008-39, GE Healthcare Biacore, Inc.) were used as described by the manufacturer. Approximately 5000 RU monoclonal mouse anti-human IgG (Fc) antibody were immobilized per cell. Anti C4.4 antibodies were injected at a concentration of 5 μg/ml at 10 μl/min for 10 sec to reach a capturing level of approximately 200 to 600 RU. Various concentrations (400 nM, 200 nM, 100 nM, 50 nM, 25 nM, 12.5 nM, 6.25 nM, and 3.12 nM) in HEPES-EP buffer (GE Healthcare Biacore, Inc.) of human or murine C4.4a were injected over immobilized anti C4.4a antibodies at a flow rate of 60 μl/min for 3 minutes and the dissociation was allowed for 10 minutes. Sensograms were generated after in-line reference cell correction followed by buffer sample subtraction. The dissociation equilibrium constant (KD) was calculated based on the ratio of association (kₒₙ) and dissociation rated (koff) constants, obtained by fitting sensograms with a first order 1:1 binding model using Biavaluation Software (version 4.0).

Test [2] concerns the target T2, recombinant soluble human C4.4a (human, UniProt O95274 31-308).
T2 construct: recombinant, soluble, purified protein; also called hC4.4a; full length C4.4a
T2 sequence: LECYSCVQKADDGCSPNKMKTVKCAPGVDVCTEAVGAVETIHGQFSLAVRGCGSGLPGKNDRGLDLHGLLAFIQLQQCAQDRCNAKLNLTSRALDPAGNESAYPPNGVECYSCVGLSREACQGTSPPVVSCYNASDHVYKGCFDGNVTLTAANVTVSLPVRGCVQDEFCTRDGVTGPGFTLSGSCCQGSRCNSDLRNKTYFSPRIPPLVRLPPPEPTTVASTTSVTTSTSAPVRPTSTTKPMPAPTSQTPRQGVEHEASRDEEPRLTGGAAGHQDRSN
The test is described as above. How it is done: as §1

For test [3], the target named is T3, human C4.4a natively expressed on tumor cell lines (human, UniProt O95274 31-326).
T3 construct: whole, on cells; also called NCI H292; NCI H322
T3 sequence (looked up): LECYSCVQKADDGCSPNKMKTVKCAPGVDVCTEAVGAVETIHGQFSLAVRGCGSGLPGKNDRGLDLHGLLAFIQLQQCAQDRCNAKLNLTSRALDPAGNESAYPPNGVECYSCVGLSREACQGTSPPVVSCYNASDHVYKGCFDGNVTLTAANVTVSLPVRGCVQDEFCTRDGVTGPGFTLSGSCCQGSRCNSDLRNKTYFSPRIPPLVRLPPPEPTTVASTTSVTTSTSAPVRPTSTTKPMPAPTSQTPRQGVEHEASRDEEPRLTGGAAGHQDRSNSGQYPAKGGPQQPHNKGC
As to the kind of experiment: FACS titration of IgG1 on NCI H292 cells. The method, then:
FACS titration was performed in a 96 well microtiter plate, in which serial dilutions of the primary antibody in a volume of 50 W of FACS buffer (3% FCS, in PBS) were mixed with 50 μl of a cell suspension consisting of 2×10^5 cells/ml which had been detached with Cell Dissociation Solution (1×) Non-enzymatic (Sigma), and resuspended in FACS buffer. Incubation was performed at 4° C. for 1 hour with agitation. Cells were pelleted, washed with FACS buffer and resuspended in 100 μl/well of Phycoerythrin labeled goat anti human IgG (Dianova) solution in FACS buffer. Incubation and washing was performed as before. Analysis of cell-bound antibodies was done at the respective detection wavelength using the FACS Array device. EC₅₀ values were determined from fluorescence medians of duplicates using Swift 8.0 software.

Test [4] concerns the target T4, murine C4.4a on transfected CHO-S:mC4.4a cells (mouse, UniProt Q91YK8 33-343).
T4 construct: full length GPI-anchored form, stably transfected; also called Mouse C4.4a:CHO; mC4.4a: CHO
T4 sequence: T1 sequence (looked up)
As to the kind of experiment: FACS titration of IgG1 on CHO-S:mC4.4a cells.

In test [5] the target is T5, human C4.4a on transfected A549:hC4.4a cells (human, UniProt O95274 31-326).
T5 sequence: T3 sequence (looked up)
Description: cell-based or functional assay.

Test [6] concerns the target T1, recombinant soluble murine C4.4a. As to the kind of experiment: direct ELISA, Fab supernatant on coated mouse C4.4a, signal normalized to Fab quantity. How it is done:
(§2) Cultures were diluted in 10% Smart Block in PBST and bound to the MTP plates for 1 h at 20° C. After washing with PBST, captured antibodies were incubated with a HRP-coupled anti-lambda antibody (Sigma, A5175) and detected by incubating the plate with 10 μM amplex red substrate (Invitrogen, A12222) for 30 minutes at 20° C. in the dark followed by fluorescence measurement. Determined quantification signals were checked to be in the dynamic range of an calibration series built up with concentrated parental Fab (M31-B01 or M20-D02-S-A) expression culture supernatant allowing a relative quantification of each individual Fab expression sample.
(§3) To determine the activity of the mutated Fab variants on recombinant soluble human or mouse C4.4a a direct ELISA assay format was used. Briefly, MTP plates (Nunc maxisorp black, 460518) were coated with 2 μg/ml either human or mouse C4.4a diluted in coating buffer (Candor Bioscience GmbH, 121125) and incubated for 15 h at 4° C. After washing 3 times with PBST, plates were blocked with 100% Smart Block (Candor Bioscience GmbH, 113500) for 1 h at 20° C. and the washing steps were repeated. For binding of the Fab antibody fragments 20 μl of culturing supernatants were added to the plates for 1 h at 20° C. followed by washing. In some cases the washing stringency was increased by an additional incubation step with 10% Smart Block in PBST for 90 min followed by washing 3 times with PBST (“process B” in Table 10b). Bound parental Fabs and variants were then detected by a HA-epitope tag specific antibody HRP conjugate (Bethyl, A190-108P). 10 μM amplex red substrate (Invitrogen, A12222) was added to the plates and the fluorescence signal was detected using a common fluorescence reader, e.g. Tecan Ultra. Quantity normalized affinity signals were calculated as ratios of background corrected affinity and quantification signals in the respective ELISA: (Signalaffinity−Backgroundaffinity)/(Signalquantity−Backgroundquantity). The resulting values correlate mainly with the affinity in a positive manner, whereas not normalized values correlate additionally with the concentration of the binding Fab in the sample.
For orientation: An ELISA detects its analyte on a solid surface through an enzyme-linked reagent.

The target of test [7] is T2, recombinant soluble human C4.4a. As to the kind of experiment: direct ELISA, Fab supernatant on coated human C4.4a, signal normalized to Fab quantity. How it is done: as §2, §3

B1: B01-5 (antibody, human IgG1, V domains shown)
VH: EVQLLESGGGLVQPGGSLRLSCAASGFTFSNAWMSWVRQAPGKGLEWVSYISSSGSTIYYADSVKGRFTISRDNSKNTLYLQMNSLRAEDTAVYYCAREGLWAFDYWGQGTLVTVSS
VL: QSVLTQPPSVSGAPGQRVTISCTGSSSNIGAGYVVHWYQQLPGTAPKLLIYDNNKRPSGVPDRFSGSKSGTSASLAISGLRSEDEADYYCAAYDDSLSGPVFGGGTKLTVLG
notes: tested as human IgG1; also called B01-05
One may read the Kd as the equilibrium constant for the complex coming apart. The EC50 is the concentration giving half of the maximal effect. A higher EC50 goes with a need for much substance. In the case of B1, the values for the Kd in test [1] and in test [2] were 10 nM and 4 nM, respectively. Besides, the EC50 stood at 0.05 nM in test [3] and 1.2 nM in test [4].

B2: B01-12 (antibody, V domains shown)
VH: B1 VH with N31S, T57S, I58T, Y106K
VL: B1 VL with V10A, A13T, T23S, K55Q, Y93F, S96R
notes: tested as human IgG1
In the case of B2, the equilibrium dissociation constant (Kd) was found to be 2 nM in test [1] and 1 nM in test [2]. The molecule also returned an EC50 in test [4] of 1.4 nM.

B3: D02-6 (antibody, human IgG1, V domains shown)
VH: EVQLLESGGGLVQPGGSLRLSCAASGFTFSDYQMTWIRQTPGKGLEWVSGISWNGGSTHYADSVKGRFTISRDNSKNTLYLQMNSLRAEDTAVYYCAKGDYLVYSSYYFKSWGQGTLVTVSS
VL: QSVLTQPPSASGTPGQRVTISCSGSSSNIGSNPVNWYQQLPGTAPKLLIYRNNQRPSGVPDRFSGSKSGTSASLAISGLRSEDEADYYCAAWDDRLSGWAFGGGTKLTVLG
notes: tested as human IgG1; also called D02-06
With B3, the Kd came out at 21 nM in test [1] and 6 nM in test [2]. The EC50 stood at 0.02 nM in test [3] and 1 nM in test [4]. For the same molecule, in test [5], the “internalization t½ [min] into A549:hC4.4a cells (CypHer 5E labeled antibody)” value amounted to 39 min.

B4: M20-D02 S-A Fab LC D92G (Fab, V domains shown)
VH: B3 VH with I51V, G56A, S57R, S106A, K110D, S121T
VL: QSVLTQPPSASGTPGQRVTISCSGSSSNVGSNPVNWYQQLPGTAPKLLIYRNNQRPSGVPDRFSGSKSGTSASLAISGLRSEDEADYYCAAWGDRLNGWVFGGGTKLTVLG
notes: Fab with 3×HA-tag and hexa-histidine tag at the C-terminus of the heavy chain, culture supernatant
B4: the “normalized affinity signal (average)” value in test [6] was found to be 0.1; in test [7], 0.64.

B5: M20-D02 S-A Fab LC A90Q (Fab, V domains shown)
VH: B3 VH with I51V, G56A, S57R, S106A, K110D, S121T
VL: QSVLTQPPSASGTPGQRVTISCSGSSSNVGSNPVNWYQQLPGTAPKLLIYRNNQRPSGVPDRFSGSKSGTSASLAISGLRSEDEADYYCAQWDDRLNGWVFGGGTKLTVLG
notes: as for B4
Turning to B5, the “normalized affinity signal (average)” value in test [6] came to 0.29; in test [7] it was 1.41.

B6: D02-4 (antibody, human IgG1, V domains shown)
VH: B3 VH with S106A, K110D
VL: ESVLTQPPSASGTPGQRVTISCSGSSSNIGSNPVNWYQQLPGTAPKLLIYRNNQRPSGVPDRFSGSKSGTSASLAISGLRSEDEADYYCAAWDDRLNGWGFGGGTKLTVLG
notes: tested as human IgG1; also called D02-04
B6: the values for the Kd in test [1] and in test [2] were 56 nM and 29 nM, respectively.

B7: D02-11 (antibody, V domains shown)
VH: B3 VH
VL: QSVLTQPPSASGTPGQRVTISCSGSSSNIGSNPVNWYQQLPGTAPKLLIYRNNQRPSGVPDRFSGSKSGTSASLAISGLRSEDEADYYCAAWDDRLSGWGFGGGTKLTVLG
notes: tested as human IgG1
With B7, the Kd is 24 nM in test [1] and 10 nM in test [2]. For the same molecule, the EC50 in test [3] was found to be 0.01 nM; in test [4], 1.7 nM. Besides, the “internalization t½ [min] into A549:hC4.4a cells (CypHer 5E labeled antibody)” value in test [5] came out at 22 min.

B8: M20-D02 S-A Fab LC V97G (Fab, V domains shown)
VH: B3 VH with I51V, G56A, S57R, S106A, K110D, S121T
VL: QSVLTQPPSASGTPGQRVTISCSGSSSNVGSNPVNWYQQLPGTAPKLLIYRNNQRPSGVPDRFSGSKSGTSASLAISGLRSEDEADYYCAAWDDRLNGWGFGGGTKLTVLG
notes: as for B4
For B8, the results for the “normalized affinity signal (average)” value in test [6] and in test [7] were 0.3 and 1.21, respectively.

B9: M20-D02 S-A Fab LC V97A (Fab, V domains shown)
VH: B3 VH with I51V, G56A, S57R, S106A, K110D, S121T
VL: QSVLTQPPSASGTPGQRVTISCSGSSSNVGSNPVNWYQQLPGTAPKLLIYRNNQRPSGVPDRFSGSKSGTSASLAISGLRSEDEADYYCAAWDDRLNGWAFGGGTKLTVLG
notes: as for B4
With B9, the results for the “normalized affinity signal (average)” value in test [6] and in test [7] were 0.52 and 1.32, respectively.

B10: D02-13 (antibody, human IgG1, V domains shown)
VH: B3 VH with D31S, T40A, S105K
VL: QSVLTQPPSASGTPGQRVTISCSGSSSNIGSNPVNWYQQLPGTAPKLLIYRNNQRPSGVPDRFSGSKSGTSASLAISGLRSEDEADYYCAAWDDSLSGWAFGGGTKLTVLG
notes: tested as human IgG1
As to B10, the Kd in test [1] was determined as 42 nM; in test [2] it was 2 nM. Moreover, the EC50 amounted to 0.12 nM in test [3] and 2 nM in test [4].

B11: M20-D02 S-A Fab HC S100aR (Fab, V domains shown)
VH: B3 VH with I51V, G56A, S57R, S105R, S106A, K110D, S121T
VL: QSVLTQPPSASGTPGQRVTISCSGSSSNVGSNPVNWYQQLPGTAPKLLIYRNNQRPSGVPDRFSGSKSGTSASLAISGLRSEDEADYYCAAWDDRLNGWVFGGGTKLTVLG
notes: as for B4
With B11, the results for the “normalized affinity signal (average)” value in test [6] and in test [7] were 0.02 and 0.43, respectively.

B12: M20-D02 S-A Fab LC A90R (Fab, V domains shown)
VH: B3 VH with I51V, G56A, S57R, S106A, K110D, S121T
VL: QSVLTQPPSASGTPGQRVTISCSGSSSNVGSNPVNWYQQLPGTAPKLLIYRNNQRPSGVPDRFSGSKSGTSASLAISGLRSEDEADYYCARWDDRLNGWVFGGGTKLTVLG
notes: as for B4
B12: the “normalized affinity signal (average)” value is 0.17 in test [6] and 0.94 in test [7].

B13: M20-D02 S-A Fab HC V51I (Fab, V domains shown)
VH: B3 VH with G56A, S57R, S106A, K110D, S121T
VL: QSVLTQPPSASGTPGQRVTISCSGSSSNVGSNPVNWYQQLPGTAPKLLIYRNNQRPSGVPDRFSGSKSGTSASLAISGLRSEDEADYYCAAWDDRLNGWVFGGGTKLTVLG
notes: as for B4
B13: the “normalized affinity signal (median, process A)” value in test [6] came out at 0.16; in test [7], 0.52.
